In PMC9482650, “Quantitative fragmentomics allow affinity mapping of interactomes” (Nature Communications, 2022):

T1: MPP2, Q14168
T1 sequence (Q14168 180-250, limits assumed, looked up): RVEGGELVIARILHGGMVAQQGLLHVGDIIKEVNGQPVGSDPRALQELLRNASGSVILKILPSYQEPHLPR

T2: DFNB31_1, Q9P202
T2 sequence (Q9P202 135-233, limits assumed, looked up): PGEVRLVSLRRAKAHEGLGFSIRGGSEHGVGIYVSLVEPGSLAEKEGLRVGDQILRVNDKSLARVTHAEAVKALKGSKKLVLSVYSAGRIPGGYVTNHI

T3: APBA2_1, Q99767
T3 sequence (Q99767 563-664, limits assumed, looked up): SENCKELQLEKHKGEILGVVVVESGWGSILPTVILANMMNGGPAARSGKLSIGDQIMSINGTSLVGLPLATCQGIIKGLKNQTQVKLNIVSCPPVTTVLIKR

T4: MPP6, Q9NZW5
T4 sequence (Q9NZW5 125-219, limits assumed, looked up): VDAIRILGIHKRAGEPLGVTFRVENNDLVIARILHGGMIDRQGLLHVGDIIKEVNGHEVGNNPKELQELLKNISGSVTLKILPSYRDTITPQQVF

T5: SNTB1, Q13884
T5 sequence (Q13884 107-205, limits assumed, looked up): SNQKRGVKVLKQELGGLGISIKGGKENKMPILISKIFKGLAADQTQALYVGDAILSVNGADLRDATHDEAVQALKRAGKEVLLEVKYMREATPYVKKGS

T6: DLG3_3, Q92796
T6 sequence (Q92796 374-475, limits assumed, looked up): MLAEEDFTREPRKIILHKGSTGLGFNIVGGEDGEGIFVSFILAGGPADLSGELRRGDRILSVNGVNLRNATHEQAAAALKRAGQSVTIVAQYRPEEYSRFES

T7: GRIP1_7, Q9Y3R0
T7 sequence (Q9Y3R0 999-1096, limits assumed, looked up): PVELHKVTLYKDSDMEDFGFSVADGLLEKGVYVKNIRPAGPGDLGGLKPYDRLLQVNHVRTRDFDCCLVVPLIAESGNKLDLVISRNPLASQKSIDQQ

T8: APBA2_2, Q99767
T8 sequence (Q99767 654-744, limits assumed, looked up): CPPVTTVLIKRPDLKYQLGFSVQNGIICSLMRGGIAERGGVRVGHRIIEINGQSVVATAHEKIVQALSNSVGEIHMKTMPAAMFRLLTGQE

T9: GRIP1_3, Q9Y3R0
T9 sequence (Q9Y3R0 247-346, limits assumed, looked up): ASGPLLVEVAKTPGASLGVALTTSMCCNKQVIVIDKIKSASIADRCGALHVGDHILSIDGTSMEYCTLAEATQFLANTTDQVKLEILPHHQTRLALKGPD

T10: LNX2_3, Q8N448
T10 sequence (Q8N448 463-564, limits assumed, looked up): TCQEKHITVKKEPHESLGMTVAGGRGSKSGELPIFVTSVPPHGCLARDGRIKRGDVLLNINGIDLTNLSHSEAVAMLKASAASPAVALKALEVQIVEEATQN

T11: GRIP1_2, Q9Y3R0
T11 sequence (Q9Y3R0 145-248, limits assumed, looked up): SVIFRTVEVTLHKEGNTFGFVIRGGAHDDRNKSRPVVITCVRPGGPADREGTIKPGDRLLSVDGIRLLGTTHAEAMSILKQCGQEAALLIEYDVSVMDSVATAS

T12: NHERF3_4, Q5T2W1
T12 sequence (Q5T2W1 373-468, limits assumed, looked up): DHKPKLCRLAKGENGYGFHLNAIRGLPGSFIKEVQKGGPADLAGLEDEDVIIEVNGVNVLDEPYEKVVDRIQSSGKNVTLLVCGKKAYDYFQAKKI

T13: ARHGEF11, O15085
T13 sequence (O15085 42-136, limits assumed, looked up): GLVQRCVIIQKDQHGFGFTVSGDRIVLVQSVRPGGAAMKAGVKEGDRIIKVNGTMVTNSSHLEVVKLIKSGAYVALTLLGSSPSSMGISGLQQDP

B1: FRMPD1, Q5SYB0 (peptide)
chain: TQKFRASTAL

These binders were tested against LNX1_3, Q8TBB1 (assay: holdup assay). Conditions: plain residues with an end cap or a label only (N-terminal biotin on a linker: ahx).
LNX1_3, Q8TBB1, sequence (Q8TBB1 500-596): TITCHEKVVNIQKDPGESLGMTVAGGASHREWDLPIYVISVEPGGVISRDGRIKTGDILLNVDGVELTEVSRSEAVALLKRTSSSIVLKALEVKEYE
Set-up: key: below the threshold = too weak to quantify, mostly under pKd 3.1 to 4

pKd	Binder
below the threshold	B1

Each binder was assayed against T1, MPP2, Q14168 (assay: holdup assay). Conditions: plain residues with an end cap or a label only (N-terminal biotin on a linker: ahx).
Set-up: key: below the threshold = too weak to quantify, mostly under pKd 3.1 to 4

pKd	Binder
below the threshold	B1

What follows are binders tested against GIPC2, Q8TF65 (assay: holdup assay). Conditions: plain residues with an end cap or a label only (N-terminal biotin on a linker: ahx).
GIPC2, Q8TF65, sequence (Q8TF65 112-203): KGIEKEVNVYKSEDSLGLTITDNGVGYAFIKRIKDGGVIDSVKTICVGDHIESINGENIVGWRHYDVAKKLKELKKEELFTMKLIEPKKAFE
Set-up: key: below the threshold = too weak to quantify, mostly under pKd 3.1 to 4

pKd	Binder
below the threshold	B1

These binders were tested against T2, DFNB31_1, Q9P202 (assay: holdup assay). Conditions: plain residues with an end cap or a label only (N-terminal biotin on a linker: ahx).
Set-up: key: below the threshold = too weak to quantify, mostly under pKd 3.1 to 4

pKd	Binder
below the threshold	B1

The binders below were run against T3, APBA2_1, Q99767 (assay: holdup assay). Conditions: plain residues with an end cap or a label only (N-terminal biotin on a linker: ahx).
Set-up: key: below the threshold = too weak to quantify, mostly under pKd 3.1 to 4

pKd	Binder
below the threshold	B1

What follows are binders tested against T4, MPP6, Q9NZW5 (assay: holdup assay). Conditions: plain residues with an end cap or a label only (N-terminal biotin on a linker: ahx).
Set-up: key: below the threshold = too weak to quantify, mostly under pKd 3.1 to 4

pKd	Binder
below the threshold	B1

Each binder was assayed against GRID2IP_1, A4D2P6 (assay: holdup assay). Conditions: plain residues with an end cap or a label only (N-terminal biotin on a linker: ahx).
GRID2IP_1, A4D2P6, sequence (A4D2P6 1-87): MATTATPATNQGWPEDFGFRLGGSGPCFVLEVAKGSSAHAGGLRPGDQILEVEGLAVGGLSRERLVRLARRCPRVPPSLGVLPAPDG
Set-up: key: below the threshold = too weak to quantify, mostly under pKd 3.1 to 4

pKd	Binder
below the threshold	B1

The binders below were run against T5, SNTB1, Q13884 (assay: holdup assay). Conditions: plain residues with an end cap or a label only (N-terminal biotin on a linker: ahx).
Set-up: key: below the threshold = too weak to quantify, mostly under pKd 3.1 to 4

pKd	Binder
below the threshold	B1

These binders were tested against T6, DLG3_3, Q92796 (assay: holdup assay). Conditions: plain residues with an end cap or a label only (N-terminal biotin on a linker: ahx).
Set-up: key: below the threshold = too weak to quantify, mostly under pKd 3.1 to 4

pKd	Binder
3.85	B1

Each binder was assayed against T7, GRIP1_7, Q9Y3R0 (assay: holdup assay). Conditions: plain residues with an end cap or a label only (N-terminal biotin on a linker: ahx).
Set-up: key: below the threshold = too weak to quantify, mostly under pKd 3.1 to 4

pKd	Binder
below the threshold	B1

These binders were tested against T8, APBA2_2, Q99767 (assay: holdup assay). Conditions: plain residues with an end cap or a label only (N-terminal biotin on a linker: ahx).
Set-up: key: below the threshold = too weak to quantify, mostly under pKd 3.1 to 4

pKd	Binder
below the threshold	B1

The binders below were run against CASK, O14936 (assay: holdup assay). Conditions: plain residues with an end cap or a label only (N-terminal biotin on a linker: ahx).
CASK, O14936, sequence (O14936 487-570): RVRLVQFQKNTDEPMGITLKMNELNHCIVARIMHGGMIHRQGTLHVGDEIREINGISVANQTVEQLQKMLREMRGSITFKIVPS
Set-up: key: below the threshold = too weak to quantify, mostly under pKd 3.1 to 4

pKd	Binder
below the threshold	B1

These binders were tested against T9, GRIP1_3, Q9Y3R0 (assay: holdup assay). Conditions: plain residues with an end cap or a label only (N-terminal biotin on a linker: ahx).
Set-up: key: below the threshold = too weak to quantify, mostly under pKd 3.1 to 4

pKd	Binder
below the threshold	B1

The binders below were run against T10, LNX2_3, Q8N448 (assay: holdup assay). Conditions: plain residues with an end cap or a label only (N-terminal biotin on a linker: ahx).
Set-up: key: below the threshold = too weak to quantify, mostly under pKd 3.1 to 4

pKd	Binder
below the threshold	B1

The binders below were run against T11, GRIP1_2, Q9Y3R0 (assay: holdup assay). Conditions: plain residues with an end cap or a label only (N-terminal biotin on a linker: ahx).
Set-up: key: below the threshold = too weak to quantify, mostly under pKd 3.1 to 4

pKd	Binder
below the threshold	B1

These binders were tested against DLG4_1, P78352 (assay: holdup assay). Conditions: plain residues with an end cap or a label only (N-terminal biotin on a linker: ahx).
DLG4_1, P78352, sequence (P78352 62-152): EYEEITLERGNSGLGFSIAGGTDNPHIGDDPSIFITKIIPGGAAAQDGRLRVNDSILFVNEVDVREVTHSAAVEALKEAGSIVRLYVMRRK
Set-up: key: below the threshold = too weak to quantify, mostly under pKd 3.1 to 4

pKd	Binder
3.48	B1

Each binder was assayed against TJP1_3, Q07157 (assay: holdup assay). Conditions: plain residues with an end cap or a label only (N-terminal biotin on a linker: ahx).
TJP1_3, Q07157, sequence (Q07157 416-512): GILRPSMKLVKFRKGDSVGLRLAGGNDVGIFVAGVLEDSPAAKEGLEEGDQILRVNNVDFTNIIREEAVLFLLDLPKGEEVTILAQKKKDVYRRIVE
Set-up: key: below the threshold = too weak to quantify, mostly under pKd 3.1 to 4

pKd	Binder
below the threshold	B1

What follows are binders tested against T12, NHERF3_4, Q5T2W1 (assay: holdup assay). Conditions: plain residues with an end cap or a label only (N-terminal biotin on a linker: ahx).
Set-up: key: below the threshold = too weak to quantify, mostly under pKd 3.1 to 4

pKd	Binder
4.54	B1

Each binder was assayed against DLG1_3, Q12959 (assay: holdup assay). Conditions: plain residues with an end cap or a label only (N-terminal biotin on a linker: ahx).
DLG1_3, Q12959, sequence (Q12959 457-571): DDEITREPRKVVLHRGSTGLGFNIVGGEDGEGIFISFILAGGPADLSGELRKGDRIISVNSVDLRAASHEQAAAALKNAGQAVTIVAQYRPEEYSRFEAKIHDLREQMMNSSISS
Set-up: key: below the threshold = too weak to quantify, mostly under pKd 3.1 to 4

pKd	Binder
3.49	B1

What follows are binders tested against MAST2, Q6P0Q8 (assay: holdup assay). Conditions: plain residues with an end cap or a label only (N-terminal biotin on a linker: ahx).
MAST2, Q6P0Q8, sequence (Q6P0Q8 1099-1202): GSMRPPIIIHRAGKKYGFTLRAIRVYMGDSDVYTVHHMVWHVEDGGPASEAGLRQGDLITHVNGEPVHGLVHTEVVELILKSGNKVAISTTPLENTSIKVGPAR
Set-up: key: below the threshold = too weak to quantify, mostly under pKd 3.1 to 4

pKd	Binder
5.36	B1

These binders were tested against NOS1, P29475 (assay: holdup assay). Conditions: plain residues with an end cap or a label only (N-terminal biotin on a linker: ahx).
NOS1, P29475, sequence (P29475 9-101): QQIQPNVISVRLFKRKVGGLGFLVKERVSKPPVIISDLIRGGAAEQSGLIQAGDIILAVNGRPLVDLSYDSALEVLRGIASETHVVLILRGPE
Set-up: key: below the threshold = too weak to quantify, mostly under pKd 3.1 to 4

pKd	Binder
3.72	B1

The binders below were run against GORASP2, Q9H8Y8 (assay: holdup assay). Conditions: plain residues with an end cap or a label only (N-terminal biotin on a linker: ahx).
Set-up: key: below the threshold = too weak to quantify, mostly under pKd 3.1 to 4

pKd	Binder
below the threshold	B1

Each binder was assayed against IL16_4, Q14005 (assay: holdup assay). Conditions: plain residues with an end cap or a label only (N-terminal biotin on a linker: ahx).
IL16_4, Q14005, sequence (Q14005 1229-1329): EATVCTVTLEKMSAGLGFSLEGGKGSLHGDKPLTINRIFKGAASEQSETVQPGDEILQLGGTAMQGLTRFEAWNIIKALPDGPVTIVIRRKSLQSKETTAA
Set-up: key: below the threshold = too weak to quantify, mostly under pKd 3.1 to 4

pKd	Binder
below the threshold	B1

The binders below were run against T13, ARHGEF11, O15085 (assay: holdup assay). Conditions: plain residues with an end cap or a label only (N-terminal biotin on a linker: ahx).
Set-up: key: below the threshold = too weak to quantify, mostly under pKd 3.1 to 4

pKd	Binder
4.38	B1
